Data as given in patent publication US20260116920A1 (PEPTIDREAM, published 2026).
Where “and” joins values, the source holds several entries; their conditions need not be identical. Equal entries are not always repeated. One block for each binder: values may come before it. Starred links: 1 amine or outer side, 2 acyl side, 3 side chain; linkers in the order of their positions; H or OH if unused. Positions of bridges follow the written chain, without caps; N, C: chain ends. Non-standard residues stand in square brackets, D forms with d. Primed or numbered codes have the meaning given here. No end group written: not given here. E(PEG8Me) = (S)-30-amino-27-oxo-2,5,8,11,14,17,20,23-octaoxa-26-azahentriacontane-31-oic acid, COCCOCCOCCOCCOCCOCCOCCOCCNC(=O)CC[C@H](N[*:1])C(=O)[*:2]; Phe(4-OMe)(3) = (S)-2-amino-3-(4-methoxyphenyl)propanoic acid (source code F4OMe), COc1ccc(C[C@H](N[*:1])C(=O)[*:2])cc1; F4aao = (S)-2-amino-3-(4-(carboxymethoxy)phenyl)propanoic acid, O=C([C@H](Cc1ccc(OCC(=O)[*:3])cc1)N[*:1])[*:2]; Ndm = N4,N4-dimethyl-L-asparagine, CN(C)C(=O)C[C@H](N[*:1])C(=O)[*:2]; Trp(1-CH2CO) = O=C([C@H](Cc1cn(CC(=O)[*:3])c2ccccc12)N[*:1])[*:2]; NMePhe(3-Cl) = CN[C@@H](Cc1cccc(Cl)c1)C(=O)O; 3Pal(6-NH2) = Nc1ccc(C[C@H](N)C(=O)O)cn1; NMeY = CN[C@@H](Cc1ccc(O)cc1)C(=O)O; NMeF = CN[C@@H](Cc1ccccc1)C(=O)O; 4Pal = N[C@@H](Cc1ccncc1)C(=O)O

Tests used:
[1] = molecular target: T1, human transferrin receptor (hTfR) (human, UniProt P02786 89-760); assay: SPR; C = KD 100 nM-1 uM
T1 construct: used as 0.5 uM hTfR dimer solution, immobilised on an NTA sensor chip (Ni capture plus EDC/NHS coupling); also called human TfR; TfR1
T1 sequence (P02786 89-760 limits assumed): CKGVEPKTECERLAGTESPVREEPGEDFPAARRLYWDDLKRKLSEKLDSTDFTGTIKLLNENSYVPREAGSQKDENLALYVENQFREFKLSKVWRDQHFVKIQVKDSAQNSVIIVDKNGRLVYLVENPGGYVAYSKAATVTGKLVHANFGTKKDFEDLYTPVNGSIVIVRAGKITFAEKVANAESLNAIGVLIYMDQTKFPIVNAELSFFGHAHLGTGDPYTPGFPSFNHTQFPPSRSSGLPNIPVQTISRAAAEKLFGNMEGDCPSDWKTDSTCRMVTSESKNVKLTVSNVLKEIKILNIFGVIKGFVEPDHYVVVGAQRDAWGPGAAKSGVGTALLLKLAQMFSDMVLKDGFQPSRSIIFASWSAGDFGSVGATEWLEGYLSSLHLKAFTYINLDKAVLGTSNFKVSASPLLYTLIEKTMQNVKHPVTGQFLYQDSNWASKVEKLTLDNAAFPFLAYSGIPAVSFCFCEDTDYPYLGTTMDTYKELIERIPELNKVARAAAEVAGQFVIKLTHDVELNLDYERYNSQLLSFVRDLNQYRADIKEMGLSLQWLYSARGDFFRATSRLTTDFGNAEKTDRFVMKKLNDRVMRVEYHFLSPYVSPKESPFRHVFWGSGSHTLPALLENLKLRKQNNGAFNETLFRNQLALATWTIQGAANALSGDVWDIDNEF
Protocol: (§1) NTA sensor chip (Global Life Sciences Technologies Japan K.K.) was inserted into BiacoreT200 (Global Life Sciences Technologies Japan K.K.), then the priming operation was performed three times by using running buffer containing: 10 mM HEPES pH 8.0 (Nacalai Tesque, Inc.), 150 mM NaCl (Nacalai Tesque, Inc.), 0.05% Tween 20 (Nacalai Tesque, Inc.), 0.1% BSA (SIGMA-ALDRICH) and 1.0% DMSO (FUJIFILM Wako Pure Chemical Corporation), and equilibrated at a flow rate of 30 μL/min. 350 mM EDTA solution was reacted at a flow rate of 10 μL/min for 60 seconds, 0.5 mM […] solution (Kishida Chemical Co., Ltd.) was reacted at a flow rate of 10 μL/min for 60 seconds, and then the NTA sensor chip was washed with 3 mM EDTA solution (Nacalai Tesque, Inc.) at a flow rate of 10 μL/min for 60 seconds. After mixing 50 μL each of 60 mM EDC solution (Global Life Science Technologies Japan K.K.) and 650 mM NHS solution (Global Life Science Technologies Japan K.K.), the reaction was carried out at a flow rate of 10 μL/min for 420 seconds. 150 μL of 0.5 μM hTfR dimer solution was prepared by dilution with running buffer and reacted at a flow rate of 10 μL/min for 300 seconds to immobilize hTfR on the NTA sensor chip. For the human transferrin receptor (hTfR), recombinant hTfR described in Example 2 of WO2018/124121 was used. After immobilization, capping was performed by reacting with 1.0 M ethanolamine solution (Global Life Sciences Technologies Japan K.K.) at a flow rate of 10 μL/min for 420 seconds. Peptide lysate prepared in DMSO solution to 10 mM was diluted with running buffer to be a final concentration of 10 μM peptide lysate, then peptide solutions of 100 nM, 50 nM, 25 nM, 10 nM, and 5 nM were prepared. Using the above samples, the kinetics of the peptide against hTfR was obtained by SPR measurement.
(§2) The kinetic evaluation model was single-cycle kinetics, and curve fitting was performed using Biacore T200 Evaluation Software Version 3.0 (Global Life Science Technologies Japan K.K.). The binding of the peptide to hTfR was evaluated by performing curve fitting on the obtained sensorgram by least squares method and obtaining the KD value.

[2] = molecular target: T1, human transferrin receptor (hTfR); assay: SPR, hTfR immobilised; legend: low signal indicates no activity
Protocol: (§3) NTA sensor chip (Global Life Sciences Technologies Japan K.K.) was inserted into BiacoreT200 (Global Life Sciences Technologies Japan K.K.), then the priming operation was performed three times by using running buffer containing: 10 mM HEPES pH 8.0 (Nacalai Tesque, Inc.), 150 mM NaCl (Nacalai Tesque, Inc.), 0.05% Tween 20 (Nacalai Tesque, Inc.), 0.1% BSA (SIGMA-ALDRICH) and 1.0% DMSO (FUJIFILM Wako Pure Chemical Corporation), and equilibrated at a flow rate of 30 μL/min. 350 mM EDTA solution was reacted at a flow rate of 10 μL/min for 60 seconds, 0.5 mM […] solution (Kishida Chemical Co., Ltd.) was reacted at a flow rate of 10 μL/min for 60 seconds, and then the NTA sensor chip was washed with 3 mM EDTA solution (Nacalai Tesque, Inc.) at a flow rate of 10 μL/min for 60 seconds. After mixing 50 μL each of 60 mM EDC solution (Global Life Science Technologies Japan K.K.) and 650 mM NHS solution (Global Life Science Technologies Japan K.K.), the reaction was carried out at a flow rate of 10 μL/min for 420 seconds. […]
as §2

[3] = molecular target: T1, human transferrin receptor (hTfR); assay: SPR, hTfR immobilised, single-cycle kinetics
Protocol: as §3, §2

[4] = molecular target: T1, human transferrin receptor (hTfR); assay: SPR; A = KD <1 nM
Protocol: as §1, §2

[5] = molecular target: T1, human transferrin receptor (hTfR); assay: SPR; ratio to 894_3151

KD [1]: 100 to 1000 nM
B1: 894_0455 (peptide)
peptide: {CH2CO}-AV[NMePhe(3-Cl)]VWN[3Pal(6-NH2)][F4aao]II[E(PEG8Me)]R[4Pal][NMeY]C-NH2
modifications: thioether N-15; also: linker PEG4c, attachment not given here

B2: 894_3180 (peptide)
peptide: {CH2CO}-AV[NMePhe(3-Cl)]V[Trp(1-CH2CO)]NY[Phe(4-OMe)(3)]IE[E(PEG8Me)][E(PEG8Me)]F[NMeY]C-NH2
modifications: thioether N-15; also: linker G-de-de-de-ds-ds-KN3, attachment not given here
binding result [2]: no binding (tested: peptide tested up to 100 nM)

Kd [3]: 1.3 nM and 1.8 nM | KD [4]: < 1 nM | KD (Each Peptide)/KD (894_3151) [5]: 1 and 1.4
B3: 894_3151 (peptide)
peptide: {CH2CO}-AV[NMeF]VWNYYIIRRY[NMeY]C
modifications: thioether N-15; not fully specified (C-terminus)

KD [1]: 100 to 1000 nM
B4: 894_3152 (peptide)
peptide: {CH2CO}-AV[NMeF]VW[Ndm]YYIIRRY[NMeY]C-NH2
modifications: thioether N-15
SMILES: CC[C@H](C)[C@@H]1NC(=O)[C@H](Cc2ccc(O)cc2)NC(=O)[C@H](Cc2ccc(O)cc2)NC(=O)[C@H](CC(=O)N(C)C)NC(=O)[C@H](Cc2c[nH]c3ccccc23)NC(=O)[C@H](C(C)C)NC(=O)[C@H](Cc2ccccc2)N(C)C(=O)[C@H](C(C)C)NC(=O)[C@H](C)NC(=O)CSC[C@@H](C(N)=O)NC(=O)[C@H](Cc2ccc(O)cc2)N(C)C(=O)[C@H](Cc2ccc(O)cc2)NC(=O)[C@H](CCCNC(=N)N)NC(=O)[C@H](CCCNC(=N)N)NC(=O)[C@H]([C@@H](C)CC)NC1=O
